Laboratory results as given in article PMC13011424.

Experiments:
[1] = biological target: BG505 SOSIP.v4.1 Env trimer produced in STT3A-KO HEK293T cells (HIV-1 strain BG505 (clade A)); assay: SEC; SEC of Ni-NTA-purified Env on a Superdex 200 10/300 GL column; trimer, dimer and monomer peaks
[2] = biological target: BG505 SOSIP.v4.1 Env trimer produced in STT3A-KO HEK293T cells (HIV-1 strain BG505 (clade A)); assay: native gel or EMSA
[3] = biological target: BG505 SOSIP.v4.1 Env trimer produced in wild-type (WT) HEK293T cells (HIV-1 strain BG505 (clade A)); assay: SEC; SEC of Ni-NTA-purified Env on a Superdex 200 10/300 GL column; trimer, dimer and monomer peaks
[4] = biological target: BG505 SOSIP.v4.1 Env trimer produced in wild-type (WT) HEK293T cells (HIV-1 strain BG505 (clade A)); assay: native gel or EMSA
[5] = biological target: BG505 SOSIP.v4.1 Env trimer produced in STT3B-KO HEK293T cells (HIV-1 strain BG505 (clade A)); assay: SEC; SEC of Ni-NTA-purified Env on a Superdex 200 10/300 GL column; trimer, dimer and monomer peaks
[6] = biological target: BG505 SOSIP.v4.1 Env trimer produced in STT3B-KO HEK293T cells (HIV-1 strain BG505 (clade A)); assay: native gel or EMSA

Substance: BG505 SOSIP.v4.1 Env trimer produced in STT3A-KO HEK293T cells (complex)
- stoichiometry N [1]: 3
- stoichiometry N [2]: 3

Substance: BG505 SOSIP.v4.1 Env trimer produced in wild-type (WT) HEK293T cells (complex)
- stoichiometry N [3]: 3
- stoichiometry N [4]: 3

Substance: BG505 SOSIP.v4.1 Env trimer produced in STT3B-KO HEK293T cells (complex)
- stoichiometry N [5]: 3
- stoichiometry N [6]: 3
